Among the data in article PMC13397619 are enrichment values, retold here.

B1: NLV3 TCR beta chain (CDR3β only) (parent)
chain: ASSPTGGSPSPLH
partner: MLVPMVATV
B2: NLV3 TCR beta chain (CDR3β only) (parent)
chain: ASSPTGGSPSPLH
partner: NLCPMVATV

In the first test the parent is B1. Put plainly: T-Switch: Jurkat TCRβ−/− cells expressing a CDR3 saturation-mutagenesis library, stained with two peptide-HLA-A*02:01 tetramers (original and novel peptide) plus anti-CD3, FACS-sorted into four gates, gDNA sequenced. The note with it: with HLA-A*02:01 with peptide … (NLV 3-1, the original bait), tetramers 1 µg/mL, 30 min on ice, DP and SW gates expanded about 10 days between rounds ('two to three rounds of selection' in the Methods), gate SP: higher = more of the variant in the gate that binds the original peptide and not the novel one = retained original binding. Fold enrichment of the CDR3 variant in one FACS gate of a two-tetra, unresolved parent, parent is a CDR3 fragment, scale: fold enrichment, numbering: sequential-on-construct, sequence ….
[…] (CDR3 as printed); H13I derived by comparing it with the table's wild-type CDR3 ASSPTGGSPSPLH: the enrichment amounted to 11.3.

On to […] (CDR3 as printed); A1T derived by comparing it with the table's wild-type CDR3 ASSPTGGSPSPLH, for which the enrichment turned out to be 0.

With […] (CDR3 as printed); G6D derived by comparing it with the table's wild-type CDR3 ASSPTGGSPSPLH, the enrichment stood at 0.39.

For the variant […] (CDR3 as printed); A1M derived by comparing it with the table's wild-type CDR3 ASSPTGGSPSPLH, the enrichment is 0.

As to […] (CDR3 as printed); A1E derived by comparing it with the table's wild-type CDR3 ASSPTGGSPSPLH, the enrichment was found to be 0.

Take […] (CDR3 as printed); H13F derived by comparing it with the table's wild-type CDR3 ASSPTGGSPSPLH: the enrichment was determined as 4.3.

Turning to […] (CDR3 as printed); H13C derived by comparing it with the table's wild-type CDR3 ASSPTGGSPSPLH, the enrichment amounted to 6.06.

Turning to […] (CDR3 as printed); G7F derived by comparing it with the table's wild-type CDR3 ASSPTGGSPSPLH, the enrichment was determined as 0.

Consider […] (CDR3 as printed); G7Q derived by comparing it with the table's wild-type CDR3 ASSPTGGSPSPLH, for which the enrichment came out at 0.

[…] (CDR3 as printed); A1W derived by comparing it with the table's wild-type CDR3 ASSPTGGSPSPLH: the enrichment is 0.

Consider […] (CDR3 as printed); H13P derived by comparing it with the table's wild-type CDR3 ASSPTGGSPSPLH, for which the enrichment is 0.

Regarding […] (CDR3 as printed); G6S derived by comparing it with the table's wild-type CDR3 ASSPTGGSPSPLH, the enrichment was 10.5.

As for […] (CDR3 as printed); G7T derived by comparing it with the table's wild-type CDR3 ASSPTGGSPSPLH, the enrichment was determined as 0.

[…] (CDR3 as printed); G7C derived by comparing it with the table's wild-type CDR3 ASSPTGGSPSPLH: the enrichment is 0.

For […] (CDR3 as printed); G7E derived by comparing it with the table's wild-type CDR3 ASSPTGGSPSPLH, the enrichment stood at 0.336.

Regarding […] (CDR3 as printed); L12E derived by comparing it with the table's wild-type CDR3 ASSPTGGSPSPLH, the enrichment was found to be 0.

As for […] (CDR3 as printed); H13Q derived by comparing it with the table's wild-type CDR3 ASSPTGGSPSPLH, the enrichment was 5.02.

Consider […] (CDR3 as printed); G7I derived by comparing it with the table's wild-type CDR3 ASSPTGGSPSPLH, for which the enrichment came to 0.

In the case of […] (CDR3 as printed); L12G derived by comparing it with the table's wild-type CDR3 ASSPTGGSPSPLH, the enrichment came to 0.

Take […] (CDR3 as printed); A1K derived by comparing it with the table's wild-type CDR3 ASSPTGGSPSPLH: the enrichment was 0.

For […] (CDR3 as printed); A1H derived by comparing it with the table's wild-type CDR3 ASSPTGGSPSPLH, the enrichment was found to be 0.

As for […] (CDR3 as printed); A1N derived by comparing it with the table's wild-type CDR3 ASSPTGGSPSPLH, the enrichment turned out to be 0.

[…] (CDR3 as printed); H13S derived by comparing it with the table's wild-type CDR3 ASSPTGGSPSPLH: the enrichment was 7.33.

With […] (CDR3 as printed); G6K derived by comparing it with the table's wild-type CDR3 ASSPTGGSPSPLH, the enrichment came to 0.

As to […] (CDR3 as printed); A1Q derived by comparing it with the table's wild-type CDR3 ASSPTGGSPSPLH, the enrichment amounted to 0.

Take […] (CDR3 as printed); H13R derived by comparing it with the table's wild-type CDR3 ASSPTGGSPSPLH: the enrichment is 4.99.

Take […] (CDR3 as printed); A1I derived by comparing it with the table's wild-type CDR3 ASSPTGGSPSPLH: the enrichment came out at 0.

For […] (CDR3 as printed); G6T derived by comparing it with the table's wild-type CDR3 ASSPTGGSPSPLH, the enrichment was 0.64.

For […] (CDR3 as printed); G6P derived by comparing it with the table's wild-type CDR3 ASSPTGGSPSPLH, the enrichment worked out at 0.

Consider […] (CDR3 as printed); G6Q derived by comparing it with the table's wild-type CDR3 ASSPTGGSPSPLH, for which the enrichment worked out at 0.

Consider […] (CDR3 as printed); G6N derived by comparing it with the table's wild-type CDR3 ASSPTGGSPSPLH, for which the enrichment is 0.

As for […] (CDR3 as printed); G7A derived by comparing it with the table's wild-type CDR3 ASSPTGGSPSPLH, the enrichment was determined as 0.

For the variant […] (CDR3 as printed); G6W derived by comparing it with the table's wild-type CDR3 ASSPTGGSPSPLH, the enrichment is 0.

Turning to […] (CDR3 as printed); A1F derived by comparing it with the table's wild-type CDR3 ASSPTGGSPSPLH, the enrichment turned out to be 0.

Regarding […] (CDR3 as printed); H13D derived by comparing it with the table's wild-type CDR3 ASSPTGGSPSPLH, the enrichment amounted to 8.55.

On to […] (CDR3 as printed); G6I derived by comparing it with the table's wild-type CDR3 ASSPTGGSPSPLH, for which the enrichment came to 0.

In the case of […] (CDR3 as printed); G6H derived by comparing it with the table's wild-type CDR3 ASSPTGGSPSPLH, the enrichment was determined as 0.

For […] (CDR3 as printed); G6R derived by comparing it with the table's wild-type CDR3 ASSPTGGSPSPLH, the enrichment was determined as 0.

Take […] (CDR3 as printed); G7M derived by comparing it with the table's wild-type CDR3 ASSPTGGSPSPLH: the enrichment stood at 0.

Take […] (CDR3 as printed); H13N derived by comparing it with the table's wild-type CDR3 ASSPTGGSPSPLH: the enrichment is 7.17.

On to […] (CDR3 as printed); H13G derived by comparing it with the table's wild-type CDR3 ASSPTGGSPSPLH, for which the enrichment stood at 0.848.

Take […] (CDR3 as printed); G7V derived by comparing it with the table's wild-type CDR3 ASSPTGGSPSPLH: the enrichment is 0.

With […] (CDR3 as printed); G7W derived by comparing it with the table's wild-type CDR3 ASSPTGGSPSPLH, the enrichment was 0.

For […] (CDR3 as printed); G6M derived by comparing it with the table's wild-type CDR3 ASSPTGGSPSPLH, the enrichment was found to be 0.

With […] (CDR3 as printed); G7Y derived by comparing it with the table's wild-type CDR3 ASSPTGGSPSPLH, the enrichment worked out at 4.27.

For the variant […] (CDR3 as printed); A1L derived by comparing it with the table's wild-type CDR3 ASSPTGGSPSPLH, the enrichment was 0.

With […] (CDR3 as printed); A1C derived by comparing it with the table's wild-type CDR3 ASSPTGGSPSPLH, the enrichment is 1.12.

With […] (CDR3 as printed); H13W derived by comparing it with the table's wild-type CDR3 ASSPTGGSPSPLH, the enrichment is 8.46.

Take […] (CDR3 as printed); G7D derived by comparing it with the table's wild-type CDR3 ASSPTGGSPSPLH: the enrichment was found to be 0.

Take […] (CDR3 as printed); L12F derived by comparing it with the table's wild-type CDR3 ASSPTGGSPSPLH: the enrichment was found to be 0.

Turning to […] (CDR3 as printed); H13A derived by comparing it with the table's wild-type CDR3 ASSPTGGSPSPLH, the enrichment worked out at 6.12.

Take […] (CDR3 as printed); G7R derived by comparing it with the table's wild-type CDR3 ASSPTGGSPSPLH: the enrichment was determined as 0.

On to […] (CDR3 as printed); H13M derived by comparing it with the table's wild-type CDR3 ASSPTGGSPSPLH, for which the enrichment turned out to be 6.07.

On to […] (CDR3 as printed); G6V derived by comparing it with the table's wild-type CDR3 ASSPTGGSPSPLH, for which the enrichment was determined as 0.

Take […] (CDR3 as printed); G6L derived by comparing it with the table's wild-type CDR3 ASSPTGGSPSPLH: the enrichment was determined as 0.

[…] (CDR3 as printed); G6A derived by comparing it with the table's wild-type CDR3 ASSPTGGSPSPLH: the enrichment is 8.12.

For […] (CDR3 as printed); A1D derived by comparing it with the table's wild-type CDR3 ASSPTGGSPSPLH, the enrichment is 0.

On to […] (CDR3 as printed); L12D derived by comparing it with the table's wild-type CDR3 ASSPTGGSPSPLH, for which the enrichment was determined as 0.

Consider […] (CDR3 as printed); G7H derived by comparing it with the table's wild-type CDR3 ASSPTGGSPSPLH, for which the enrichment worked out at 0.

With […] (CDR3 as printed); H13V derived by comparing it with the table's wild-type CDR3 ASSPTGGSPSPLH, the enrichment amounted to 5.71.

Consider […] (CDR3 as printed); G6Y derived by comparing it with the table's wild-type CDR3 ASSPTGGSPSPLH, for which the enrichment was 0.

On to […] (CDR3 as printed); G6F derived by comparing it with the table's wild-type CDR3 ASSPTGGSPSPLH, for which the enrichment is 0.

[…] (CDR3 as printed); L12C derived by comparing it with the table's wild-type CDR3 ASSPTGGSPSPLH: the enrichment was found to be 4.3.

As for […] (CDR3 as printed); A1V derived by comparing it with the table's wild-type CDR3 ASSPTGGSPSPLH, the enrichment stood at 0.479.

For the variant […] (CDR3 as printed); G7L derived by comparing it with the table's wild-type CDR3 ASSPTGGSPSPLH, the enrichment worked out at 0.

As for […] (CDR3 as printed); A1S derived by comparing it with the table's wild-type CDR3 ASSPTGGSPSPLH, the enrichment came out at 4.29.

For the variant […] (CDR3 as printed); L12A derived by comparing it with the table's wild-type CDR3 ASSPTGGSPSPLH, the enrichment turned out to be 0.

For […] (CDR3 as printed); G7K derived by comparing it with the table's wild-type CDR3 ASSPTGGSPSPLH, the enrichment turned out to be 0.

For […] (CDR3 as printed); G6E derived by comparing it with the table's wild-type CDR3 ASSPTGGSPSPLH, the enrichment was found to be 0.

Take […] (CDR3 as printed); A1Y derived by comparing it with the table's wild-type CDR3 ASSPTGGSPSPLH: the enrichment worked out at 0.

On to […] (CDR3 as printed); H13E derived by comparing it with the table's wild-type CDR3 ASSPTGGSPSPLH, for which the enrichment was determined as 4.01.

On to […] (CDR3 as printed); A1G derived by comparing it with the table's wild-type CDR3 ASSPTGGSPSPLH, for which the enrichment was 5.7.

Take […] (CDR3 as printed); A1R derived by comparing it with the table's wild-type CDR3 ASSPTGGSPSPLH: the enrichment came out at 0.

Consider […] (CDR3 as printed); H13T derived by comparing it with the table's wild-type CDR3 ASSPTGGSPSPLH, for which the enrichment is 5.47.

Turning to […] (CDR3 as printed); G7S derived by comparing it with the table's wild-type CDR3 ASSPTGGSPSPLH, the enrichment amounted to 0.

On to […] (CDR3 as printed); H13L derived by comparing it with the table's wild-type CDR3 ASSPTGGSPSPLH, for which the enrichment amounted to 5.69.

With […] (CDR3 as printed); H13Y derived by comparing it with the table's wild-type CDR3 ASSPTGGSPSPLH, the enrichment amounted to 6.69.

As for […] (CDR3 as printed); G7N derived by comparing it with the table's wild-type CDR3 ASSPTGGSPSPLH, the enrichment was 0.

Regarding […] (CDR3 as printed); A1P derived by comparing it with the table's wild-type CDR3 ASSPTGGSPSPLH, the enrichment turned out to be 0.

As for […] (CDR3 as printed); H13K derived by comparing it with the table's wild-type CDR3 ASSPTGGSPSPLH, the enrichment is 3.5.

On to […] (CDR3 as printed); G6C derived by comparing it with the table's wild-type CDR3 ASSPTGGSPSPLH, for which the enrichment turned out to be 0.

Variants of B2 are the subject of the next test. The description is as above. Conditions: with HLA-A*02:01 with peptide … (NLV 2-1, the novel peptide), tetramers 1 µg/mL, 30 min on ice, SP, DP and SW gates expanded about 10 days between rounds ('two to three rounds of selection' in the Methods), gate SW: higher = more of the variant in the gate that binds the novel peptide and not the original one = switched binding. Fold enrichment of the CDR3 variant in one FACS gate of a two-tetramer stain, unresolved parent, parent is a CDR3 fragment, scale: fold enrichment, numbering: sequential-on-construct, sequence starts at 1.
On to […] (CDR3 as printed); S10C derived by comparing it with the table's wild-type CDR3 ASSPTGGSPSPLH, for which the enrichment worked out at 0.

Take […] (CDR3 as printed); T5S derived by comparing it with the table's wild-type CDR3 ASSPTGGSPSPLH: the enrichment was determined as 0.
